Among the targets are BTK(R28H)(h) (human) (UniProt Q06187); ZAP-70(h) (human) (UniProt P43403); CDK1/cyclinB(h) (human) (UniProt P06493); PKCδ(h) (human) (UniProt Q05655); ZIPK(h) (human) (UniProt O43293); SAPK2a(h) (human) (UniProt Q16539); HIPK2(h) (human) (UniProt Q9H2X6); PKCγ(h) (human) (UniProt P05129); mTOR/FKBP12(h) (human) (UniProt P42345).
Test in all cases: cell-based or functional assay
In another test the target is T1, Haspin(h) (human) (UniProt Q8TF76).
T1 sequence (looked up): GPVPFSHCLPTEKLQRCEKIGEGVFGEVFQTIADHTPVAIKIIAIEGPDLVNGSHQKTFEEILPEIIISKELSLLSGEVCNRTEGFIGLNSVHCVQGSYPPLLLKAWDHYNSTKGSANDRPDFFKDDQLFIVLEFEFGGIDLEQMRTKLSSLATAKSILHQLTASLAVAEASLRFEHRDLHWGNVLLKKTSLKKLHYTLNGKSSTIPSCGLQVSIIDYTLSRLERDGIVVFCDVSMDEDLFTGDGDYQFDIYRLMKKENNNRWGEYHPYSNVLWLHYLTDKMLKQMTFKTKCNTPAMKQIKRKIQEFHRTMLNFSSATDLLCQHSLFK

The target of the next test is T2, Flt3(h) (human) (UniProt P36888).
T2 sequence (looked up): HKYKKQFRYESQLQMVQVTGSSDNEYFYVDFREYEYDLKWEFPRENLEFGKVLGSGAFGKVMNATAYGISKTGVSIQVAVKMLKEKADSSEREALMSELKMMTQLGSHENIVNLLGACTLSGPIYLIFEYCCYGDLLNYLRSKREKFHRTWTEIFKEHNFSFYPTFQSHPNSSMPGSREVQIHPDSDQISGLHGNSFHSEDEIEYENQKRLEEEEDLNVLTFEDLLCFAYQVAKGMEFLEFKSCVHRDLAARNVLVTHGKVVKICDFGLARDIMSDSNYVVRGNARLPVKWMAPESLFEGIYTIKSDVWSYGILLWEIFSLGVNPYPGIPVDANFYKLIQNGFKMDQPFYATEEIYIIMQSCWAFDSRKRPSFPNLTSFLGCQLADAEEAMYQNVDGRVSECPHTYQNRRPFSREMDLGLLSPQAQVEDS

The next test deals with T3, Txk(h) (human) (UniProt P42681).
T3 sequence (looked up): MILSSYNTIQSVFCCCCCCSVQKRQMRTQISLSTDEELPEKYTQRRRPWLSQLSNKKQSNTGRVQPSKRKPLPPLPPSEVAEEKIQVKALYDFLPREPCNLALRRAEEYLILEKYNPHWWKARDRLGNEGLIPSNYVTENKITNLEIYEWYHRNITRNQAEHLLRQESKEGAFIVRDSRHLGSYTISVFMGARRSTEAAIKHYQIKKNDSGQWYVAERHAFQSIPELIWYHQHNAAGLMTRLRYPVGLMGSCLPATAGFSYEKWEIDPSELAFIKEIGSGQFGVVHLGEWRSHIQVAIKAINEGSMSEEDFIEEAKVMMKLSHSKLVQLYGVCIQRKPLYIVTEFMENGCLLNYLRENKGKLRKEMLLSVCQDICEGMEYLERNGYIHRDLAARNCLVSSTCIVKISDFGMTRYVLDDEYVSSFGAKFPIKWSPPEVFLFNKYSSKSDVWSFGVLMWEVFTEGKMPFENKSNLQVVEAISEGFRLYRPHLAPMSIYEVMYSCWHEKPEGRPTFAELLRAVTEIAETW

A further test addresses T4, IKKβ(h) (human) (UniProt O14920).
T4 sequence (looked up): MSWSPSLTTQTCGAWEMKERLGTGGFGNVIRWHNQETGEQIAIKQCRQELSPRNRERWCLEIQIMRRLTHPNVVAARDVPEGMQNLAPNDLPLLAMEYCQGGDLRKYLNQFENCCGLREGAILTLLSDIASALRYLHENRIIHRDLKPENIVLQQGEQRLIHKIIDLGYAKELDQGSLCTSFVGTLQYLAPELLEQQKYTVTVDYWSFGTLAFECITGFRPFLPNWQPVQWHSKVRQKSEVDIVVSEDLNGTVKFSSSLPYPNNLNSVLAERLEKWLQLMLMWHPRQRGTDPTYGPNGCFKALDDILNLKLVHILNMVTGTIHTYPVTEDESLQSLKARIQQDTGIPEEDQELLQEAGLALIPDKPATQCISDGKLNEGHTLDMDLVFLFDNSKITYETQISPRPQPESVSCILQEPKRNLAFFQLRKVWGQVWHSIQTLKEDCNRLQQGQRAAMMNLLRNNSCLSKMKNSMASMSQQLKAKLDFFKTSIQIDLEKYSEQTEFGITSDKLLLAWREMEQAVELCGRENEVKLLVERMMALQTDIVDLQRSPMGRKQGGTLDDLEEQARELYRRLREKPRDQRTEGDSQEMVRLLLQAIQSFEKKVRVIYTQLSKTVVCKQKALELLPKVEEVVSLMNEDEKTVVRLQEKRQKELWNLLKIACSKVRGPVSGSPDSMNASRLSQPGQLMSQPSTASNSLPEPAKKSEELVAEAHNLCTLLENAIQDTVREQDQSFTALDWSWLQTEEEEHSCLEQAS

Sequence of SAPK2a(h) (human) (Q16539 whole entry): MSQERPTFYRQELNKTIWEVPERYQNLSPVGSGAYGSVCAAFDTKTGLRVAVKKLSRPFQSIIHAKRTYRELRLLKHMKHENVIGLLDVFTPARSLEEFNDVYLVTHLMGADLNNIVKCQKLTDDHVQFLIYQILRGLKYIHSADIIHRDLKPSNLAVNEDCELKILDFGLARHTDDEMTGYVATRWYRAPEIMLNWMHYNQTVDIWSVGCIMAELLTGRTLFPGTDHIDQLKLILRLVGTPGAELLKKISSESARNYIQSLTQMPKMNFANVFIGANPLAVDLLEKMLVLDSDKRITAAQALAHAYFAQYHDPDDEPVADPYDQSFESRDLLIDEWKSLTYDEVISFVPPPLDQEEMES
Sequence of ZAP-70(h) (human) (P43403 whole entry): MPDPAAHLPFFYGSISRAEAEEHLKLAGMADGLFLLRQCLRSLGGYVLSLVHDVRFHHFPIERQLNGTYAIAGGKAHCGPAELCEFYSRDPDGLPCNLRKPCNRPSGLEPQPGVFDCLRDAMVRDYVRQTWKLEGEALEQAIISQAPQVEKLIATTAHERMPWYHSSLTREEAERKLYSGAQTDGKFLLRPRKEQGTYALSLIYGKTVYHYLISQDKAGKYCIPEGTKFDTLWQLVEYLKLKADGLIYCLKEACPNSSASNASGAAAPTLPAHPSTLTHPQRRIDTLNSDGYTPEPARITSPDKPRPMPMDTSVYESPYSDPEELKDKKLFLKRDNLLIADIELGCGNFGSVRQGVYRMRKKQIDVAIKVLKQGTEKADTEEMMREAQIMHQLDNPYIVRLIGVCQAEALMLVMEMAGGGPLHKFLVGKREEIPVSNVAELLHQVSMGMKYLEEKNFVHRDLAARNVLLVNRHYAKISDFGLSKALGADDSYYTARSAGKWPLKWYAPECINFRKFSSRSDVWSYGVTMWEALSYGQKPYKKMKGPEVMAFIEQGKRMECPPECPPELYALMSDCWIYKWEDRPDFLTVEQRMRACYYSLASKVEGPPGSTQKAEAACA
Sequence of mTOR/FKBP12(h) (human) (P42345 1362-2549 limits assumed, chain 1 of 2): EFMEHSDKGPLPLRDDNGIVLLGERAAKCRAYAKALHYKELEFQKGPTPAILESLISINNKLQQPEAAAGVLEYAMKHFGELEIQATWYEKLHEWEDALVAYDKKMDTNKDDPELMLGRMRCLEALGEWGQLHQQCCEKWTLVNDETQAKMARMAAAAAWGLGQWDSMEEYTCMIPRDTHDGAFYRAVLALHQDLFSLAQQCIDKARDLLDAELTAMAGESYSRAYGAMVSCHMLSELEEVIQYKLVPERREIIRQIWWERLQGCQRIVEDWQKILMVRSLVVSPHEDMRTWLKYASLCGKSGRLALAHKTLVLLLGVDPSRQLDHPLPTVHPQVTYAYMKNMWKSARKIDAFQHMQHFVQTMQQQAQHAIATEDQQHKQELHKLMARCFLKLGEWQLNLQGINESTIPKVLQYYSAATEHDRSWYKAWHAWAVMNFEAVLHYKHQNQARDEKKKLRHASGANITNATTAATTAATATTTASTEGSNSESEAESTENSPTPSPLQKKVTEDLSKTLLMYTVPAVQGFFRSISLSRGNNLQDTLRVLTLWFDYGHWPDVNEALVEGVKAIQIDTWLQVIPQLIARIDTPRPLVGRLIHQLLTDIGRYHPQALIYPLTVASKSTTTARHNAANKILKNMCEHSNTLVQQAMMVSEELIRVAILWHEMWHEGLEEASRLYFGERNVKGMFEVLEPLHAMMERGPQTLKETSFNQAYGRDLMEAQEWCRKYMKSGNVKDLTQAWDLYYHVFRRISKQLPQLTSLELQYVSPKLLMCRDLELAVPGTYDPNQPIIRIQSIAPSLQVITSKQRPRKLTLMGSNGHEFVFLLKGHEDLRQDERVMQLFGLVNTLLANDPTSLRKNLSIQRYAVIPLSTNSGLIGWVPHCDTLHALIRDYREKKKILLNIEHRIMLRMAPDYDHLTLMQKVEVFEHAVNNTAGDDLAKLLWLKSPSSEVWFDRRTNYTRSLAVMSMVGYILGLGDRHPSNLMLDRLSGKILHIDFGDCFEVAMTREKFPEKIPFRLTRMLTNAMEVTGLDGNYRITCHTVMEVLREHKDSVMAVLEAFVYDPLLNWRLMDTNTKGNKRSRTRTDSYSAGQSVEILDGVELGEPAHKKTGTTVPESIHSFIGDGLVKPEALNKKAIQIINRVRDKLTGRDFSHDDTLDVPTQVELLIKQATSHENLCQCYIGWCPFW
Sequence of mTOR/FKBP12(h) (human) (P62942 whole entry, chain 2 of 2, further chain): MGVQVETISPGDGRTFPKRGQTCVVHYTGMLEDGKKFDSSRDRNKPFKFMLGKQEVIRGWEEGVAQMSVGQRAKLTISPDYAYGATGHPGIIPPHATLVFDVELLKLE

Consider MMI-0400 (peptide), for which the % activity at 100 µM with BTK(R28H)(h) (human) amounted to 24%; with Haspin(h) (human), 36%; with ZAP-70(h) (human) it was 33%; with CDK1/cyclinB(h) (human) it was 74%; in the test with Flt3(h) (human), 18%; in the test with PKCδ(h) (human) it was 90%. The % activity at 100 µM came out at 37% in the test with Txk(h) (human); 84% with IKKβ(h) (human); 13% with ZIPK(h) (human); 85% in the test with SAPK2a(h) (human); 90% with HIPK2(h) (human); 79% with PKCγ(h) (human). In the test with mTOR/FKBP12(h) (human), the % activity at 100 µM came to 125%.

Regarding MMI-0500 (peptide), the % activity at 100 µM with BTK(R28H)(h) (human) was determined as 10%; with Haspin(h) (human), 25%; with ZAP-70(h) (human) it was 1%; in the test with CDK1/cyclinB(h) (human), 57%; in the test with Flt3(h) (human), 17%; with PKCδ(h) (human), 61%. Moreover, the % activity at 100 µM amounted to 10% with Txk(h) (human); 71% with IKKβ(h) (human); 1% with ZIPK(h) (human); 52% in the test with SAPK2a(h) (human); 38% with HIPK2(h) (human); 6% in the test with PKCγ(h) (human). Besides, the % activity at 100 µM with mTOR/FKBP12(h) (human) turned out to be 140%.

MMI-0300 (peptide): the % activity at 100 µM with BTK(R28H)(h) (human) was found to be 74%; with Haspin(h) (human), 48%; in the test with ZAP-70(h) (human) it was 75%; in the test with CDK1/cyclinB(h) (human), 73%; with Flt3(h) (human) it was 84%; with PKCδ(h) (human) it was 101%. Also, the % activity at 100 µM with Txk(h) (human) worked out at 48%; with IKKβ(h) (human), 84%; with ZIPK(h) (human), 28%; in the test with SAPK2a(h) (human), 90%; in the test with HIPK2(h) (human), 73%; in the test with PKCγ(h) (human), 89%. The % activity at 100 µM with mTOR/FKBP12(h) (human) amounted to 145%.

The values are drawn from US20150064134A1.
